Test results reported in patent US20120064110A1.
*: point of attachment. NH(propargyl) = C#CCN*

Test: Circular dichroism measurement of peptide secondary structure
Assay type: physicochemical
Details: aqueous environments; 208 nm and 222 nm signal; FIG. 1 and FIG. 2

Row | Substance | α-helical structure content by circular dichroism
1 | Acetyl-Ala-Ala-Asp-Lys-Ala-Ser-Thr-Gln-Ala-Ala-Ile-Asp-Gly-Ala-Thr-Asn-Ala-Val-Asn-Ser-Ala-Ile-Glu-Ala-Gly-Gly-NHCH2CCH (Ac-AADKASTQAAIDGATNAVNSAIEAGG-{NH(propargyl)}; SMILES C#CCNC(=O)CNC(=O)CNC(=O)[C@H](C)NC(=O)[C@H](CCC(=O)O)NC(=O)[C@@H](NC(=O)[C@H](C)NC(=O)[C@H](CO)NC(=O)[C@H](CC(N)=O)NC(=O)[C@@H](NC(=O)[C@H](C)NC(=O)[C@H](CC(N)=O)NC(=O)[C@@H](NC(=O)[C@H](C)NC(=O)CNC(=O)[C@H](CC(=O)O)NC(=O)[C@@H](NC(=O)[C@H](C)NC(=O)[C@H](C)NC(=O)[C@H](CCC(N)=O)NC(=O)[C@@H](NC(=O)[C@H](CO)NC(=O)[C@H](C)NC(=O)[C@H](CCCCN)NC(=O)[C@H](CC(=O)O)NC(=O)[C@H](C)NC(=O)[C@H](C)NC(C)=O)[C@@H](C)O)[C@@H](C)CC)[C@@H](C)O)C(C)C)[C@@H](C)CC) [A2] | less optimal for forming α-helical structures in aqueous environments
2 | Acetyl-AADAADKEAKQKAIDAATNAVNSAIEAANKAGG-NHCH2CCH (Ac-AADAADKEAKQKAIDAATNAVNSAIEAANKAGG-{NH(propargyl)}; SMILES C#CCNC(=O)CNC(=O)CNC(=O)[C@H](C)NC(=O)[C@H](CCCCN)NC(=O)[C@H](CC(N)=O)NC(=O)[C@H](C)NC(=O)[C@H](C)NC(=O)[C@H](CCC(=O)O)NC(=O)[C@@H](NC(=O)[C@H](C)NC(=O)[C@H](CO)NC(=O)[C@H](CC(N)=O)NC(=O)[C@@H](NC(=O)[C@H](C)NC(=O)[C@H](CC(N)=O)NC(=O)[C@@H](NC(=O)[C@H](C)NC(=O)[C@H](C)NC(=O)[C@H](CC(=O)O)NC(=O)[C@@H](NC(=O)[C@H](C)NC(=O)[C@H](CCCCN)NC(=O)[C@H](CCC(N)=O)NC(=O)[C@H](CCCCN)NC(=O)[C@H](C)NC(=O)[C@H](CCC(=O)O)NC(=O)[C@H](CCCCN)NC(=O)[C@H](CC(=O)O)NC(=O)[C@H](C)NC(=O)[C@H](C)NC(=O)[C@H](CC(=O)O)NC(=O)[C@H](C)NC(=O)[C@H](C)NC(C)=O)[C@@H](C)CC)[C@@H](C)O)C(C)C)[C@@H](C)CC) [HA54.4] | More significant improvement of the α-helical content
3 | Acetyl-AADAADKEAAQKALDAATNALNAAIEAANAAGG-NHCH2CCH (Ac-AADAADKEAAQKALDAATNALNAAIEAANAAGG-{NH(propargyl)}; SMILES C#CCNC(=O)CNC(=O)CNC(=O)[C@H](C)NC(=O)[C@H](C)NC(=O)[C@H](CC(N)=O)NC(=O)[C@H](C)NC(=O)[C@H](C)NC(=O)[C@H](CCC(=O)O)NC(=O)[C@@H](NC(=O)[C@H](C)NC(=O)[C@H](C)NC(=O)[C@H](CC(N)=O)NC(=O)[C@H](CC(C)C)NC(=O)[C@H](C)NC(=O)[C@H](CC(N)=O)NC(=O)[C@@H](NC(=O)[C@H](C)NC(=O)[C@H](C)NC(=O)[C@H](CC(=O)O)NC(=O)[C@H](CC(C)C)NC(=O)[C@H](C)NC(=O)[C@H](CCCCN)NC(=O)[C@H](CCC(N)=O)NC(=O)[C@H](C)NC(=O)[C@H](C)NC(=O)[C@H](CCC(=O)O)NC(=O)[C@H](CCCCN)NC(=O)[C@H](CC(=O)O)NC(=O)[C@H](C)NC(=O)[C@H](C)NC(=O)[C@H](CC(=O)O)NC(=O)[C@H](C)NC(=O)[C@H](C)NC(C)=O)[C@@H](C)O)[C@@H](C)CC) [SEQHAS] | More significant improvement of the α-helical content
4 | Acetyl-AADAADKEAAQKAIDAATNAVNAAIEAANAAGG-NHCH2CCH (Ac-AADAADKEAAQKAIDAATNAVNAAIEAANAAGG-{NH(propargyl)}; SMILES C#CCNC(=O)CNC(=O)CNC(=O)[C@H](C)NC(=O)[C@H](C)NC(=O)[C@H](CC(N)=O)NC(=O)[C@H](C)NC(=O)[C@H](C)NC(=O)[C@H](CCC(=O)O)NC(=O)[C@@H](NC(=O)[C@H](C)NC(=O)[C@H](C)NC(=O)[C@H](CC(N)=O)NC(=O)[C@@H](NC(=O)[C@H](C)NC(=O)[C@H](CC(N)=O)NC(=O)[C@@H](NC(=O)[C@H](C)NC(=O)[C@H](C)NC(=O)[C@H](CC(=O)O)NC(=O)[C@@H](NC(=O)[C@H](C)NC(=O)[C@H](CCCCN)NC(=O)[C@H](CCC(N)=O)NC(=O)[C@H](C)NC(=O)[C@H](C)NC(=O)[C@H](CCC(=O)O)NC(=O)[C@H](CCCCN)NC(=O)[C@H](CC(=O)O)NC(=O)[C@H](C)NC(=O)[C@H](C)NC(=O)[C@H](CC(=O)O)NC(=O)[C@H](C)NC(=O)[C@H](C)NC(C)=O)[C@@H](C)CC)[C@@H](C)O)C(C)C)[C@@H](C)CC) [HA54.1] | More significant improvement of the α-helical content
